Laboratory results published in paper PMC3887192.

Biological target: HLA A*0201-…
Assay: SPR
Conditions: 25 °C

In order of rising Kd:
1. ILA1 TCR ILA1α1β1 (CDR2&3 mutations, not printed)  2 nM
2. ILA1 TCR ILA1α1β2 (CDR2&3 mutations, not printed)  3.1 nM
3. ILA1 TCR ILA1β2 (CDR2 mutations, not printed)  9.1 nM
4. ILA1 TCR ILA1β1 (CDR2 mutations, not printed)  9.5 nM
5. ILA1 TCR ILA1α1 (CDR3 mutations, not printed)  26 nM
6. MEL5 TCR MEL5β8 (CDR2&3 mutations, not printed)  170 nM
7. MEL5 TCR MEL5β6 (CDR2&3 mutations, not printed)  210 nM
8. MEL5 TCR MEL5β7 (CDR2&3 mutations, not printed)  540 nM
9. MEL5 TCR MEL5β3 (CDR2 mutations, not printed)  850 nM
10. MEL5 TCR MEL5β2 (CDR2 mutations, not printed)  1300 nM
11. MEL5 TCR MEL5β4 (CDR2 mutations, not printed)  1400 nM
12. MEL5 TCR MEL5β1 (CDR2 mutations, not printed)  1800 nM
13. MEL5 TCR MEL5β5 (CDR2&3 mutations, not printed)  2100 nM

In order of rising dG:
1. ILA1 TCR ILA1α1 (CDR3 mutations, not printed)  -9.65 kcal/mol-1
2. MEL5 TCR MEL5β8 (CDR2&3 mutations, not printed)  -8.61 kcal/mol-1
3. MEL5 TCR MEL5β6 (CDR2&3 mutations, not printed)  -8.49 kcal/mol-1
4. MEL5 TCR MEL5β7 (CDR2&3 mutations, not printed)  -7.97 kcal/mol-1
5. MEL5 TCR MEL5β3 (CDR2 mutations, not printed)  -7.72 kcal/mol-1
6. MEL5 TCR MEL5β2 (CDR2 mutations, not printed)  -7.49 kcal/mol-1
7. MEL5 TCR MEL5β4 (CDR2 mutations, not printed)  -7.45 kcal/mol-1
8. MEL5 TCR MEL5β1 (CDR2 mutations, not printed)  -7.31 kcal/mol-1
9. MEL5 TCR MEL5β5 (CDR2&3 mutations, not printed)  -7.22 kcal/mol-1

In order of falling other: Half-life:
1. ILA1 TCR ILA1α1 (CDR3 mutations, not printed)  1100 s
2. MEL5 TCR MEL5β8 (CDR2&3 mutations, not printed)  49.2 s
3. MEL5 TCR MEL5β7 (CDR2&3 mutations, not printed)  27.6 s
4. MEL5 TCR MEL5β6 (CDR2&3 mutations, not printed)  11.4 s
5. MEL5 TCR MEL5β3 (CDR2 mutations, not printed)  4.2 s
6. MEL5 TCR MEL5β4 (CDR2 mutations, not printed)  3 s
7. MEL5 TCR MEL5β1 (CDR2 mutations, not printed)  2.4 s
8. MEL5 TCR MEL5β2 (CDR2 mutations, not printed)  2.4 s
9. MEL5 TCR MEL5β5 (CDR2&3 mutations, not printed)  1.2 s
